Values of other authors, collected in US20140213990A1, “COMPOSITIONS AND METHODS FOR TREATING SURFACE WOUNDS” (priority 2013, published 2014).

Experiments:
[1] = Phase III clinical trials
diabetic foot ulcers = conditions: at 20 weeks of treatment

In the case of Becaplermin, the “patients in whom cancer appeared” value [1] is listed as 80% and the “closure (healing) rate for diabetic foot ulcers” value (diabetic foot ulcers) is listed as 44%.
